From patent US20150353950A1, “TRANSGENIC PLANTS” (Durham University, priority 2012, published 2015)

Assays:
SUMO1 = molecular target: T1, SUMO1 (Arabidopsis thaliana, UniProt P55852); assay: Far-western / peptide array of GID1 SIM peptides probed with SUMO1; type: binding; settings: for SIM-SUMO1 interaction (far-western): 1 μg peptide spotted on PVDF, probed with His:proAtSUMO1 (10 μg/ml); for interaction with SUMO1 (peptide array): peptide arrays of GID1 SIMs
T1 construct: His (N); made in house; host or cells: E. coli
T1 sequence (P55852 whole entry): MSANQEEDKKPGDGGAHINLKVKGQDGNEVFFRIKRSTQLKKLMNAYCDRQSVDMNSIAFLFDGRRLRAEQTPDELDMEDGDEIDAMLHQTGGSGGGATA
Procedure: FIGS. 9A-C. GID1a contains a functional SIM motif in the N-terminal region. a, amino acid positions of two putative SIMs (SUMO interacting motifs) in the GID1a N-terminal domain (SEQ ID NO: 59). Lower panel, far-western assays of two peptides corresponding to SIM A (SEQ ID NO: 60) and SIM B (SEQ ID NO: 58). […] Number indicates molecular mass (kDa). Non-transgenic, wild-type extracts (wt) were used as a negative control. c, mean root growth of 10 days old seedlings in the presence of 100 mM NaCl expressed as a inhibition (%) relatively to the untreated controls. Error bar=s.e.m. n=16.
Peptides corresponding to the putative SIMs in GID1 were purchased from Cambridge Research Biochemicals. 1 μg of each peptide was spotted on a PVDF membrane. Membranes were washed in 100% Ethanol, equilibrated in TBST (25 mM Tris HCl, pH 8.0, 150 mM NaCl, 0.05% Tween 20) and blocked in TBST-Milk 5%. Peptides were probed overnight at 4° C. with recombinant His:proAtSUMO1 (10 μg/ml), washed and subsequently probed with SUMO1 antibodies for standard chemoluminescence-based detection.

GID1a [1] = molecular target: T2, GID1a (Arabidopsis thaliana, UniProt Q9MAA7); assay: SPR (Biacore 2000) on immobilised GID1a; type: binding
T2 construct: The GID1a ORF was amplified by PCR from whole cDNAs from seedlings with oligos LC73 and LC74; made in house; host or cells: E. coli
T2 sequence (Q9MAA7 1-345): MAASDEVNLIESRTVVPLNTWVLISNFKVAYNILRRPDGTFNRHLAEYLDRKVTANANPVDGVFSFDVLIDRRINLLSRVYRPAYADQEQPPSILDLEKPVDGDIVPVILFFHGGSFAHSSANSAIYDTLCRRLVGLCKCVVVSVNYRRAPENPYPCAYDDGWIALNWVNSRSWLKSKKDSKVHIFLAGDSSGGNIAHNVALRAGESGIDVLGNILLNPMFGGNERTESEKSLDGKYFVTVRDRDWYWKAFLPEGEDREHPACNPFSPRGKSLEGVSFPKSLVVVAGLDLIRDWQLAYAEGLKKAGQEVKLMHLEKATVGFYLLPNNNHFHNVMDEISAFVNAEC
Procedure: FIG. 17. SUMO inhibits GID1a binding to RGA-DELLA protein Interaction between RGA alone with GID1a (red) and, RGA and SUMO1 (AtS1, blue) with GID1a both in the presence of GA3. […] Method: SPR was carried out on a Biacore 2000 instrument at 25° C. Purified GID1a was amine-coupled to a CM5 sensor chip (GE Healthcare). Flow cell 1 was blocked using ethanolamine and used as reference. Approx 500 RU of GID1a was bound to flow cells 2 and 3. All binding assays were carried out in HBS-EP buffer (10 mM HEPES pH 7.5, 150 mM NaCl, 1 mM EDTA, 1 mM DTT, 0.005% P20) at a flow rate of 20 μl/min using 180 second injections followed by 180 s of dissociation in HBS-EP. Each condition was run in duplicate using proteins at 100 μg/ml in HBS-EP (containing 100 μM GA3 as appropriate). Regeneration used 10 mM glycine pH 1.5 at 30 μl/min for 30 s.
FIGS. 18A and B. GID1a—SUMO Interaction Data Sensorgram of interaction between SUMO1 (AtS1) with GID1a.

GID1a [2] = molecular target: T2, GID1a; assay: GST pull down assay with GST:GID1a; type: binding; settings: presence or absence of GA3 (10 μM)
Procedure: FIGS. 4A-F. SUMOylated DELLA binds GID1 independently from GA. a, crossspecies alignment of SIM B in the GID1 protein amino terminal extension (grey). Alignment discloses SEQ ID NOS 50-55, respectively, in order of appearance. b, GST pull down assay between His:AtSUMO1 and GST:GID1a or GST in the presence (+) or absence (−) of GA3 (10 μM). Asterisk indicates a cross-reacting band. c, GST pull down assay between plant-derived GFP:RGA proteins with recombinant GST:GID1a or GST. d, mean germination rates (percentage of visible green cotyledons) of wild type (wt), ots1 ots2 double mutants and transgenic lines (T4). n=40-80 for each treatment/genotype combination. Error bar=s.d. of three biological replicates. e, images of NaCl-grown seedlings. Bar=1 cm f, model for the SUMOylation-dependent DELLA accumulation. For recombinant proteins, affinity purified GST:GID1a (0.1 μg) or GST were mixed with His:AtSUMO1 (0.1 μg) and incubated in 1× reaction buffer (Gamborg's B5—minimal organics, 50 mM NaCl, 0.05% Igepal CA-630, 1 mM DTT, 50 mM Tris HCl, pH 7.5). GA3 was added at a final concentration of 10 μM. Proteins were pulled-down using the μMACS GST Isolation Kit, according to the manufacturers' instruction (Miltenyi biotech). […]

[3] = molecular target: T3, SUMOylated GFP:RGA (plant-derived)
T3 chain 1: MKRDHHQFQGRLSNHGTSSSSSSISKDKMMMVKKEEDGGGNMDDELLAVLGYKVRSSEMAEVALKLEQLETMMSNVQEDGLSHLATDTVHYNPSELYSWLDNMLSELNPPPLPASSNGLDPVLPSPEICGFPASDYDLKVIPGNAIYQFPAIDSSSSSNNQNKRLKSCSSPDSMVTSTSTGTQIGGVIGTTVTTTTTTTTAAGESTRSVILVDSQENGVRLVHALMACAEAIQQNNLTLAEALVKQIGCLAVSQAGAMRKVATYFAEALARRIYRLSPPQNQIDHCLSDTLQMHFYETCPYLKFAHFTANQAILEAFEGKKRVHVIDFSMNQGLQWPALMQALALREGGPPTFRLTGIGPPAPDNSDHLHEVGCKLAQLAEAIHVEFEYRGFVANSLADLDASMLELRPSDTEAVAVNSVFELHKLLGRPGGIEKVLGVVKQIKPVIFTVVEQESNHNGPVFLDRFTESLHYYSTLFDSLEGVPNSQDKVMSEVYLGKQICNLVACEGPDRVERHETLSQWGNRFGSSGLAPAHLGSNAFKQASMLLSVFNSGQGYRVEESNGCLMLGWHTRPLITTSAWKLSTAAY
T3 chain 2: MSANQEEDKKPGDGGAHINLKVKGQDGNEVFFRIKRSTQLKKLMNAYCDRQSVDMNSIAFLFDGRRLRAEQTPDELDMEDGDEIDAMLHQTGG

SIM B: peptide corresponding to putative SUMO interacting motif B in the GID1a N-terminal domain (SEQ ID NO: 58) (VVPLNTWVLISN; listed as Arabidopsis thaliana)
SIM-SUMO1 interaction (far-western) (SUMO1): Binding between the SIM and SUMO1 occurs | interaction with SUMO1 (peptide array) (SUMO1): shown to be a genuine SIM

SIM B V22A: SIM B peptide with substitution of a hydrophobic amino acid for an alanine residue (VVPLNTWALISN)
SIM-SUMO1 interaction (far-western) (SUMO1): strongly reduced SIM-SUMO1 interaction | interaction with SUMO1 (peptide array) (SUMO1): reduction in interaction

B1: AtS1: Arabidopsis small ubiquitin-like modifier SUMO1, recombinant (protein)
chain: MSANQEEDKKPGDGGAHINLKVKGQDGNEVFFRIKRSTQLKKLMNAYCDRQSVDMNSIAFLFDGRRLRAEQTPDELDMEDGDEIDAMLHQTGG
binding of AtS1 to GID1a (SPR sensorgram) (GID1a [1]; 25° C., HBS-EP buffer, proteins at 100 μg/ml): binding and saturation of AtS1 to GID1a followed by disassociation | effect on RGA binding to GID1a (SPR combined response) (GID1a [1]; RGA and AtS1 together, in the presence of GA3 (100 μM)): combined response (blue) is reduced in the presence of AtS1 | binding to GST:GID1a (GST pull down) (GID1a [2]): can bind to SUMO1 from Arabidopsis in a GA-independent manner

B2: SUMOylated RGA: plant-derived SUMOylated form of GFP:RGA DELLA protein (protein)
chain 1: MKRDHHQFQGRLSNHGTSSSSSSISKDKMMMVKKEEDGGGNMDDELLAVLGYKVRSSEMAEVALKLEQLETMMSNVQEDGLSHLATDTVHYNPSELYSWLDNMLSELNPPPLPASSNGLDPVLPSPEICGFPASDYDLKVIPGNAIYQFPAIDSSSSSNNQNKRLKSCSSPDSMVTSTSTGTQIGGVIGTTVTTTTTTTTAAGESTRSVILVDSQENGVRLVHALMACAEAIQQNNLTLAEALVKQIGCLAVSQAGAMRKVATYFAEALARRIYRLSPPQNQIDHCLSDTLQMHFYETCPYLKFAHFTANQAILEAFEGKKRVHVIDFSMNQGLQWPALMQALALREGGPPTFRLTGIGPPAPDNSDHLHEVGCKLAQLAEAIHVEFEYRGFVANSLADLDASMLELRPSDTEAVAVNSVFELHKLLGRPGGIEKVLGVVKQIKPVIFTVVEQESNHNGPVFLDRFTESLHYYSTLFDSLEGVPNSQDKVMSEVYLGKQICNLVACEGPDRVERHETLSQWGNRFGSSGLAPAHLGSNAFKQASMLLSVFNSGQGYRVEESNGCLMLGWHTRPLITTSAWKLSTAAY
chain 2: MSANQEEDKKPGDGGAHINLKVKGQDGNEVFFRIKRSTQLKKLMNAYCDRQSVDMNSIAFLFDGRRLRAEQTPDELDMEDGDEIDAMLHQTGG
modifications: left off: large carriers
notes: plant-derived SUMOylated form of GFP:RGA DELLA protein
binding to GST:GID1a (GST pull down) (GID1a [2]): could bind to GST:GID1a even in the absence of GA

B3: His:OTS1 (protein)
chain: MTKRKKEVIDVDCSEKKDFVIDWSSAMDKEDEVPELEIVNTTKPTPPPPPTFFSDDQTDSPKLLTDRDLDEQLERKKAILTLGPGLPDKGEKIRLKIADLEEEKQRRVLEGSKMEVDRSSKVVSSTSSGSDVLPQGNAVSKDTSRGNADSKDTSRQGNADSKEVSRSTFSAVFSKPKTDSQSKKAFGKELEDLGCERRKHKAGRKPVTRLSNGWRLLPDVGKAEHSAKQFDSGLKESKGNKKSKEPYGKKRPMESSTYSLIDDDDDDDDDDDNDTSGHETPREWSWEKSPSQSSRRRKKSEDTVINVDEEEAQPSTVAEQAAELPEGLQEDICYPTRDDPHFVQVCLKDLECLAPREYLTSPVMNFYMRFLQQQISSSNQISADCHFFNTYFYKKLSDAVTYKGNDKDAFFVRFRRWWKGIDLFRKAYIFIPIHEDLHWSLVIVCIPDKKDESGLTILHLDSLGLHSRKSIVENVKRFLKDEWNYLNQDDYSLDLPISEKVWKNLPRRISEAVVQVPQQKNDFDCGPFVLFFIKRFIEEAPQRLKRKDLGMFDKKWFRPDEASALRIKIRNTLIELFRVSDQTE
in vitro deSUMOylation of immunoprecipitated GFP:RGA (anti-SUMO1 immunoblot) [3]: dramatic reduction of the higher molecular weight, anti-SUMO1 cross-reacting bands only in the tubes containing wild-type OTS1
